Test results taken from patent US20100210517A1 (RAPTOR PHARMACEUTICAL, published 2010).
Substitutions are numbered along the chain they refer to. Names may count otherwise.

T1: MAT CR12 (human, UniProt Q9Y5Y6 452-524)
T1 construct: also called ST14 CR12; matriptase CR12
T1 sequence: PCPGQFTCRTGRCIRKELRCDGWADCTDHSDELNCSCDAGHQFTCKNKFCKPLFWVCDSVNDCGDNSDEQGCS

T2: LRP2 CR2728 (human, UniProt P98164 3552-3631)
T2 construct: domain: CR2728; Its cloning is not described in the methods; not shown: N-terminal hexahistidine and S-peptide tags of pET30(+)a
T2 sequence (looked up): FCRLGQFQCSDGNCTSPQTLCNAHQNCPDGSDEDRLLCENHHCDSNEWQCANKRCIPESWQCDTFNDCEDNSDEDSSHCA

B1: MatRAP1 N-42 without the C-terminal linker and affinity tag (ligand)
chain: FREELKHFGAKIERHNHYQKQLEIAHEWLRHAESVGDGERVSRSREKHALLEGRTKELGYTVKKHLQDLSGRISRAR
notes: Range derived; not shown: N-terminal hexahistidine and S-peptide tags of pET30(+)a
B2: MatRAP1 truncated by 10 amino acids at the N-terminus (ligand)
chain: GYSTEAEFEEPRVIDLWDLAQSANLTDKELEAFREELKHFGAKIERHNHYQKQLEIAHEWLRHAESVGDGERVSRSREKHALLEGRTKELGYTVKKHLQDLSGRISRAR
notes: Range derived: d3 starts at 201 and 10 residues were removed; also called MatRAP1 N-10; not shown: N-terminal hexahistidine and S-peptide tags of pET30(+)a
B3: MatRAP2 d3 (ligand)
chain: LDRLRRVSHQGYSTEAEFEEPRVIDLWDLAQPANLTDKGLEAFREGLKHFLAKIEPHNHYQKQLETVREPLRYAESVGDGERVSRSHEKYALLEGRTRELGYTVKKHLQDLFGRISRAR
notes: Selected by phage panning on MAT CR34; also called RAP vMB; not shown: N-terminal hexahistidine and S-peptide tags of pET30(+)a
B4: MatRAP1 truncated by 52 amino acids at the N-terminus (ligand)
chain: KIERHNHYQKQLEIAHEWLRHAESVGDGERVSRSREKHALLEGRTKELGYTVKKHLQDLSGRISRAR
notes: Range derived from the number of residues removed (52 total); also called MatRAP1 N-52; not shown: N-terminal hexahistidine and S-peptide tags of pET30(+)a
B5: MatRAP1 truncated by 31 amino acids at the N-terminus (ligand)
chain: SANLTDKELEAFREELKHFGAKIERHNHYQKQLEIAHEWLRHAESVGDGERVSRSREKHALLEGRTKELGYTVKKHLQDLSGRISRAR
notes: Range derived from the number of residues removed; also called MatRAP1 N-31; not shown: N-terminal hexahistidine and S-peptide tags of pET30(+)a
B6: MatRAP1 truncated variant, amino acids 243-313 (71 amino acids) (ligand)
chain: FREELKHFGAKIERHNHYQKQLEIAHEWLRHAESVGDGERVSRSREKHALLEGRTKELGYTVKKHLQDLSG
notes: also called best truncated variant; not shown: N-terminal hexahistidine and S-peptide tags of pET30(+)a
B7: MegaRAP1 d3 double revertant A256K, E270K (ligand)
chain: LDRLRRVSHQGYTTEAKFEEPRVIDLWDLAQSANLTDKELEAFREELKYFKAKIEKHNHYQKQLEIAHEKLRHAESVGDGERVSRSREKHALLEGRTKELGYTVKKHLQDLSGRISRAR
notes: not shown: N-terminal hexahistidine and S-peptide tags of pET30(+)a
B8: MegaRAP1 d3 double revertant K251E, E270K (ligand)
chain: B7 chain with K51E, K56A
notes: as for B7
B9: RAP d3 forward mutant K256A, K270E (ligand)
chain: B7 chain with T13S, K17E, Y49H, K51E, K56A, K70E
notes: also called K270E in combination with K256A; not shown: N-terminal hexahistidine and S-peptide tags of pET30(+)a
B10: RAP d3 forward mutant E251K, K270E (ligand)
chain: B7 chain with T13S, K17E, Y49H, K70E
notes: also called K270E in combination with E251K; not shown: N-terminal hexahistidine and S-peptide tags of pET30(+)a
B11: RAP d3 forward mutant E251K, K256A, K270E (ligand)
chain: B7 chain with T13S, K17E, Y49H, K56A, K70E
notes: also called triple mutant; not shown: N-terminal hexahistidine and S-peptide tags of pET30(+)a
B12: MegaRAP1 d3 revertant Y249H (ligand)
chain: B7 chain with Y49H, K56A, K70E
notes: MegaRAP1 d3 with position 249 reverted to wild type; not shown: N-terminal hexahistidine and S-peptide tags of pET30(+)a
B13: MegaRAP1 d3 revertant T213S (ligand)
chain: B7 chain with T13S, K56A, K70E
notes: MegaRAP1 d3 with position 213 reverted to wild type; not shown: N-terminal hexahistidine and S-peptide tags of pET30(+)a
B14: MegaRAP1 d3 revertant E270K (ligand)
chain: B7 chain with K56A
notes: MegaRAP1 d3 with position 270 reverted to wild type; also called MegaRAP1 d3 E270K; E270K revertant; not shown: N-terminal hexahistidine and S-peptide tags of pET30(+)a
B15: MegaRAP1 d3 revertant K251E (ligand)
chain: B7 chain with K51E, K56A, K70E
notes: as for B7
B16: RAP d3 forward mutant E217K (ligand)
chain: B7 chain with T13S, Y49H, K51E
notes: The paragraph gives only the position; the change E217K follows from the mutagenic primers and the MegaRAP1 mutation set; also called single-site RAP d3 mutant at 217; not shown: N-terminal hexahistidine and S-peptide tags of pET30(+)a
B17: MegaRAP1 d3 revertant A256K (ligand)
chain: B7 chain with K70E
notes: as for B7
B18: RAP d3 forward mutant E251K (ligand)
chain: B7 chain with T13S, K17E, Y49H
notes: The paragraph gives only the position; the change E251K follows from the mutagenic primers; not shown: N-terminal hexahistidine and S-peptide tags of pET30(+)a
B19: RAP d3 forward mutant H249Y (ligand)
chain: B7 chain with T13S, K17E, K51E
notes: The paragraph gives only the position; the change H249Y follows from the mutagenic primers; also called single-site RAP d3 mutant at 249; not shown: N-terminal hexahistidine and S-peptide tags of pET30(+)a
B20: MegaRAP1 d3 revertant K217E (ligand)
chain: B7 chain with K17E, K56A, K70E
notes: MegaRAP1 d3 with position 217 reverted to wild type; not shown: N-terminal hexahistidine and S-peptide tags of pET30(+)a
B21: RAP d3 forward mutant K270E (ligand)
chain: B7 chain with T13S, K17E, Y49H, K51E, K70E
notes: also called K270E alone; not shown: N-terminal hexahistidine and S-peptide tags of pET30(+)a

Columns and labels:
[1] = biological target: T3, MAT CR23 (human); experiment: solid-phase binding assay; target not given, MAT CR23 is the pair MatRAP1 was selected on
T3 construct: range 487-566; also called ST14 CR23; matriptase CR23
T3 sequence (Q9Y5Y6 487-566): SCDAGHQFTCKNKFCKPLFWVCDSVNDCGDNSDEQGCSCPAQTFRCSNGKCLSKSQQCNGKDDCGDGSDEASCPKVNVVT
Protocol: (§1) Solid phase binding assays-Purified, refolded CR protein (1 μg) was bound to Nunc Maxisorp™ 96-well plates in TBS pH 8 supplemented with 5 mM CaCl₂ (TBSC) overnight at 4° C. Wells were washed with TBSC and then blocked with TBSC containing 2% bovine serum albumin (BSA). […] Control wells contained no added ligand. As an additional control, to determine whether the absence of calcium affected binding, 10 mM EGTA was included in the incubation medium for some samples. […] Excess primary antibody was removed and wells washed before incubation with the secondary antibody, HRP-conjugated goat anti rabbit IgG (Bio-Rad). After washing, TMB substrate solutions (Bio-Rad) were added to detect HRP. Color development was stopped with 1N HCl. Absorption at 450 nm was measured with a microplate spectrophotometer (Molecular Devices). Data were plotted and Kd values derived by non-linear regression with the assumption of single-site binding (GraphPad Prism).

[2] = biological target: T1, MAT CR12; experiment: binding of truncated MatRAP1 forms to MAT CR12, relative signal under isomolar conditions
Protocol: as §1

[3] = biological target: T4, LRP2 CR3031 (human, UniProt P98164 3677-3755); experiment: solid-phase assay on coated CR protein, each ligand at 80 nM, blank-corrected absorbance
T4 construct: domain: CR3031; Its cloning is not described in the methods; not shown: N-terminal hexahistidine and S-peptide tags of pET30(+)a
T4 sequence (P98164 3677-3755): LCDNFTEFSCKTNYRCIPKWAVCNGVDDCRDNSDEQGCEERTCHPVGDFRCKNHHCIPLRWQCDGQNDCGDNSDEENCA
Protocol: (§2) Samples were tested twice, in duplicate, and values combined. Means and standard deviations were then calculated. Blank values obtained from wells incubated in the absence of ligand were used to correct absorbance data.
as §1

[4] = biological target: T2, LRP2 CR2728; experiment: as above
Protocol: as §2, §1

[5] = biological target: T5, LRP2 CR34-36 (human, UniProt P98164 3841-3963); experiment: as above
T5 construct: domain: CR34-36; not shown: N-terminal hexahistidine and S-peptide tags of pET30(+)a
T5 sequence (P98164 3841-3963): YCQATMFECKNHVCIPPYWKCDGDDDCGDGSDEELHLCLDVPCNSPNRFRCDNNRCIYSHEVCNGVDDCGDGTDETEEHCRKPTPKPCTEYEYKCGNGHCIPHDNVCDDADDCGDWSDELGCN
Protocol: as §2, §1

[6] = biological target: T6, LRP2 CR3536 (human, UniProt P98164 3882-3963); experiment: as above
T6 construct: domain: CR3536; not shown: N-terminal hexahistidine and S-peptide tags of pET30(+)a
T6 sequence (P98164 3882-3963): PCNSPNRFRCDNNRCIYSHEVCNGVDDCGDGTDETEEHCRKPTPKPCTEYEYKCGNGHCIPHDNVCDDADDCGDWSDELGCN
Protocol: as §2, §1

[7] = biological target: T7, LRP2 CR89 (human, UniProt P98164 1025-1102); experiment: as above
T7 construct: domain: CR89; also called YVWR; L2 CR89; not shown: N-terminal hexahistidine and S-peptide tags of pET30(+)a
T7 sequence (P98164 1025-1102): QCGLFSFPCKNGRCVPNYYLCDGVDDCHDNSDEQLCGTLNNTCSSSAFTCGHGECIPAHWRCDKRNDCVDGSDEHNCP
Protocol: as §2, §1

[8] = biological target: T7, LRP2 CR89; experiment: solid-phase assay on coated CR protein, single-site non-linear fit
Protocol: (§3) Data were plotted and fitted by non-linear regression with the assumption of a single binding site (GraphPad Prism). Kd values with standard deviations were derived from the regression analysis.
as §1

[9] = biological target: T8, LRP1 CR3-5 (human); experiment: as above
T8 construct: range 852-973; also called L1 CR3-5
T8 sequence (Q07954 852-973): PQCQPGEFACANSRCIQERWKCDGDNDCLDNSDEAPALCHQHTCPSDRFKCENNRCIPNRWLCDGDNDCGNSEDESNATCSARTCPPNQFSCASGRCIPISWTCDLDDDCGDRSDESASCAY
Protocol: as §3, §1

[10] = biological target: T7, LRP2 CR89; experiment: solid-phase assay; OD at the highest ligand concentration as percent of the highest OD of all ligands
Protocol: as §1

[11] = biological target: T8, LRP1 CR3-5; experiment: as above
Protocol: as §1

[12] = biological target: T7, LRP2 CR89; experiment: solid-phase binding assay, CR protein coated on plate, anti-RAP detection
[13] = biological target: T8, LRP1 CR3-5; experiment: as above
[14] = biological target: T7, LRP2 CR89; experiment: solid-phase assay on coated CR protein, anti-RAP detection, A450
Protocol: as §3, §1

| Binder | % max [10] [%] | % max [11] [%] | binding result [14] | other results |
| --- | --- | --- | --- | --- |
| B1 | – | – | – | fold increase in affinity over MatRAP1 N-42 [1]: 2 fold |
| B2 | – | – | – | fnctn (relative binding signal under isomolar conditions) [2]: 0.1 |
| B3 | – | – | – | binding result [3]: no binding (tested: 80 nM); binding result [4]: no binding (tested: 80 nM); binding result [5]: no binding (tested: 80 nM); binding result [6]: no binding (tested: 80 nM); binding result [7]: no binding (tested: 80 nM) |
| B4 | – | – | – | binding result [2]: no binding |
| B5 | – | – | – | fnctn (relative binding signal under isomolar conditions) [2]: 0.35 |
| B6 | – | – | – | fnctn (relative binding signal under isomolar conditions) [2]: 2.7; fold increase in affinity over MatRAP1 N-42 [1]: 4 fold; fold increase in affinity over the full-length d3 variant [1]: 12 fold |
| B7 | 73 | 93 | – | Kd [8]: 72 nM; Kd [9]: 4 nM; fold loss of affinity against the E270K revertant [12]: 2 fold; fold improvement in affinity against the E270K single-site revertant [13]: ~30 fold |
| B8 | 16 | 16 | – | Kd [8]: 153 nM; fold difference in affinity against the single-site E270K revertant [12]: ~20 fold |
| B9 | 3 | 2 | no binding (tested: 100 nM) | – |
| B10 | 2 | 4 | no binding (tested: 100 nM) | – |
| B11 | 40 | 2 | – | Kd [8]: 114 nM |
| B12 | 35 | 2 | – | – |
| B13 | 94 | 2 | – | Kd [8]: 19 nM |
| B14 | 100 | – | – | Kd [8]: 8 nM; Kd [9]: 114 nM; Kd [13]: 142 nM |
| B15 | 11 | 2 | no binding (tested: 100 nM) | – |
| B16 | 5 | 91 | no binding (tested: 100 nM) | Kd [9]: 9 nM |
| B17 | 2 | 6 | no binding (tested: 100 nM) | – |
| B18 | 5 | 100 | no binding (tested: 100 nM) | Kd [9]: 7 nM |
| B19 | 2 | 90 | no binding (tested: 100 nM) | Kd [9]: 28 nM |
| B20 | 88 | 2 | – | Kd [8]: 25 nM |
| B21 | 2 | 4 | no binding (tested: 100 nM) | – |
